In patent US20240352075A1, “PACAP1-23 ANALOG GLYCOPEPTIDES AND METHODS FOR PRODUCING AND USING THE SAME” (priority 2021, published 2024):
Where a SMILES comes first, the peptide text is derived from it. Primed or numbered codes have the meaning given here. Where no end group is shown, it is not given here. [ ]: non-standard residue; d: D form. The star is where a group is joined. ξ: configuration not given here. X2 = OCC1OC(OC2C(CO)OC(*)C(O)C2O)C(O)C(O)C1O; Glc = glucose on Ser (glucosylated Ser); Lac′ = lactose, glycoside on Ser; Nva = CCC[C@H](N)C(=O)O; ξS = NC(CO)C(=O)O; Sar = CNCC(=O)O

T1: VPAC1 (Homo sapiens, UniProt P32241)
T1 construct: 3xHA (N)
T1 sequence (P32241 31-457): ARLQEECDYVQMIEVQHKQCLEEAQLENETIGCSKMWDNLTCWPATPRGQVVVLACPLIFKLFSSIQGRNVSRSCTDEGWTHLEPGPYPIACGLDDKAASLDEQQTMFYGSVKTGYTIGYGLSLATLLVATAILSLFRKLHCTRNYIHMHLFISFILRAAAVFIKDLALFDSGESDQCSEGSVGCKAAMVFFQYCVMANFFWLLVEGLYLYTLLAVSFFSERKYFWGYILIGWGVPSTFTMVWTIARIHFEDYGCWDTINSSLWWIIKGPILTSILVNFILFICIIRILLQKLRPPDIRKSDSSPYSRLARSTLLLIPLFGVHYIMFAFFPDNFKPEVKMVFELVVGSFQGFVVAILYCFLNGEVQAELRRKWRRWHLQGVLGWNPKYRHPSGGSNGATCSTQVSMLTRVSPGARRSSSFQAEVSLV

T2: PAC1 (Homo sapiens, UniProt P41586)
T2 construct: 3xHA (N)
T2 sequence (P41586 21-468): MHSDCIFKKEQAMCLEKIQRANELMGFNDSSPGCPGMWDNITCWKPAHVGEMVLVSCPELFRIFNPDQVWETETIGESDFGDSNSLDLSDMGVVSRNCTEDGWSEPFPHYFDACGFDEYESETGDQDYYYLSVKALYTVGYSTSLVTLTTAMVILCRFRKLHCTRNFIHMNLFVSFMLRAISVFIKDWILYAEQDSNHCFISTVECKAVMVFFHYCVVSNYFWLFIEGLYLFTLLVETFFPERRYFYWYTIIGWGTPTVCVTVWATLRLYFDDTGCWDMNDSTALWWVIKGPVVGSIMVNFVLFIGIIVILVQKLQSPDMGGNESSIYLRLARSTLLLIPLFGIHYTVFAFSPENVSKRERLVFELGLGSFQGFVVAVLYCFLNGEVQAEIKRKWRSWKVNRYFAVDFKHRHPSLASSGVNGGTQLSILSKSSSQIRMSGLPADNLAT

T3: human PAC1 (human, UniProt P41586 21-468)
T3 sequence (looked up): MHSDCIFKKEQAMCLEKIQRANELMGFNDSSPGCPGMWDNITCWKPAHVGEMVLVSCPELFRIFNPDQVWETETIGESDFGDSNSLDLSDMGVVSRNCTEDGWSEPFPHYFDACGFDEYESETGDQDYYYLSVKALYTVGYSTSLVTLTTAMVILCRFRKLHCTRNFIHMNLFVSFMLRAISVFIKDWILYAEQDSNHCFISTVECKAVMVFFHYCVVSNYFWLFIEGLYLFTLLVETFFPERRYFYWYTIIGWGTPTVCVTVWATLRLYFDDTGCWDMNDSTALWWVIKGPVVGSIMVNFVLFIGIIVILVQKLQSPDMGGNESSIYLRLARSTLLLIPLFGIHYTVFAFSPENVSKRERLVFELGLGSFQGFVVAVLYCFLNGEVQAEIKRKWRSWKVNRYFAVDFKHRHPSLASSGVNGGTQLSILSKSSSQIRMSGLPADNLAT

T4: human VPAC1 (human, UniProt P32241 31-457)
T4 sequence (looked up): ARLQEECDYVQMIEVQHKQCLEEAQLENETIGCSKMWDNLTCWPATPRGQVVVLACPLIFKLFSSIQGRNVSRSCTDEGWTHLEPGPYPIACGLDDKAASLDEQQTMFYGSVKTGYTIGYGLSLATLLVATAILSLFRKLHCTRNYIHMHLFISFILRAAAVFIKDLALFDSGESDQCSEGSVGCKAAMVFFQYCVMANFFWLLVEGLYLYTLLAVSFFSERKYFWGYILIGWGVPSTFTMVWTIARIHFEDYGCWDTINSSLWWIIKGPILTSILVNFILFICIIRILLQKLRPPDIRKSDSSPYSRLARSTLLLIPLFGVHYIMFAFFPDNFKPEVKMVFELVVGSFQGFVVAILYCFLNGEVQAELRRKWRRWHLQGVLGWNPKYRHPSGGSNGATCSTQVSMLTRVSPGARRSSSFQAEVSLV

T5: human VPAC2 (human, UniProt P41587 24-438)
T5 sequence (looked up): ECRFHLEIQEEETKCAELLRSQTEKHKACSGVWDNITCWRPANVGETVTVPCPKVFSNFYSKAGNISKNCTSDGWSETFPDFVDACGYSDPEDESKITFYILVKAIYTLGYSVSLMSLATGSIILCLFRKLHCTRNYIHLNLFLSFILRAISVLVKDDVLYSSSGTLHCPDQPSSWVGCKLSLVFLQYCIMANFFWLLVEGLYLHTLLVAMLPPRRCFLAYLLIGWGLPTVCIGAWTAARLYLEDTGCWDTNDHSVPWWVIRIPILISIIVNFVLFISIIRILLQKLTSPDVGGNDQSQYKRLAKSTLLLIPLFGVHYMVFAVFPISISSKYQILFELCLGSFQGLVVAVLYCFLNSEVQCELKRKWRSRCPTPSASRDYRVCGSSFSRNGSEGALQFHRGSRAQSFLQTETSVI


Assays:
VPAC1 = biological target: T1, VPAC1; assay: cAMP accumulation assay in CHO cells stably expressing VPAC1; assay type: cell-based; conditions: CHO
PAC1 = biological target: T2, PAC1; assay: cAMP accumulation assay in CHO cells stably expressing PAC1; assay type: cell-based; conditions: CHO
Method: Cell Culture: CHO cells stably expressing cloned PAC1, VPAC1, and VPAC2 were produced by electroporation with human PAC1/VPAC1/VPAC2 N-3×HA tag cDNA constructs (GeneCopocia). Cells were grown on 10 cm dishes in DMEM/F-12 50/50 mix w/L-glutamine & 15 mM HEPES (Corning) containing 10% heat inactivated fetal bovine serum, 100 units/mL penicillin, 100 μg/mL streptomycin, and 500 μg/mL G418 under 5% CO2 at 37° C. The cells were enriched into high expressing populations using flow cytometry, selecting the top ˜2% of expressing cells.
CAMP Accumulation Assay: At ˜80% confluence, cells were plated into 96-well plates (20.000 cells/well) and grown in the same medium and conditions as described above for 24 hrs. The cells were then serum starved for 4 hr. After a 20 min incubation at 37° C. with 500 μM 3-Isobutyl-1-methylxanthine (IBMX), serum free medium containing 500 μM IBMX and the appropriate agonists were added and then incubated for 10 min at 37° C. The reaction was terminated by removing the medium and adding 60 μL of ice-cold assay buffer (50 mM Tris-HCl pH 7.4, 100 mM NaCl, 5 mM ethylenediaminetetraacetic acid [EDTA]). Plates were sealed with boiling mats and then boiled at 95° C. for 10 min. Plates were then centrifuged at 4000 rpm, 4° C., for 10 min to remove debris. 50 μL of lysate was transferred to a 96-well plate. Lysate was incubated with ˜1 μmol 3H-CAMP (PerkinElmer), and 7 μg protein kinase A (Sigma Aldrich) with 0.05% Bovine Serum Albumin (BSA). The assay was incubated at room temperature for 1 hr. The reactions were then harvested onto GF/B filter plates (PerkinElmer) via rapid filtration by a 96-well plate Cell Harvester (Brandel) and washed 3 times with ice-cold water. Filter plates were dried, 40 μL of Microscint-PS scintillation cocktail was added to each well, and then counted in a TopCount or Microbeta2 (PerkinElmer) microplate scintillation counter.

human PAC1 = biological target: T3, human PAC1; assay: cell-based or functional assay
human VPAC1 [1] = biological target: T4, human VPAC1; assay: cell-based or functional assay
human VPAC1 [2] = biological target: T4, human VPAC1; assay: cell-based or functional assay; remark: listed apart in the source
human VPAC2 [3] = biological target: T5, human VPAC2; assay: cell-based or functional assay
human VPAC2 [4] = biological target: T5, human VPAC2; assay: cell-based or functional assay; remark: listed apart in the source

| Molecule | Emax (VPAC1) [%] | Emax (PAC1) [%] | cAMP stimulation EC50 (human PAC1) [nM] | cAMP stimulation EC50 (human VPAC1 [1]) [nM] | cAMP stimulation Emax (Table 1, differs from Table 3) (human VPAC1 [2]) [%] | cAMP stimulation Emax (human PAC1) [%] | cAMP stimulation Emax (human VPAC1 [1]) [%] | cAMP stimulation EC50 (human VPAC2 [3]) [nM] | cAMP stimulation Emax (human VPAC2 [3]) [%] | cAMP stimulation Emax (Table 1, differs from Table 3) (human VPAC2 [4]) [%] |
| --- | --- | --- | --- | --- | --- | --- | --- | --- | --- | --- |
| CCC[C@H](NC(=O)[C@H](CCC(N)=O)NC(=O)[C@H](CCCCN)NC(=O)[C@H](CCCNC(=N)N)NC(=O)[C@H](Cc1ccc(O)cc1)NC(=O)[C@H](CCCNC(=N)N)NC(=O)[C@H](CO)NC(=O)[C@H](Cc1ccc(O)cc1)NC(=O)[C@H](CO)NC(=O)[C@H](CC(=O)O)NC(=O)[C@@H](NC(=O)[C@H](Cc1ccccc1)NC(=O)[C@@H](NC(=O)CN(C)C(=O)[C@H](CC(=O)O)NC(=O)[C@H](CO)NC(=O)[C@@H](N)Cc1c[nH]cn1)[C@@H](C)CC)[C@@H](C)O)C(=O)N[C@@H](C)C(=O)N[C@H](C(=O)N[C@@H](CCCCN)C(=O)N[C@@H](CCCCN)C(=O)N[C@@H](Cc1ccc(O)cc1)C(=O)N[C@@H](CC(C)C)C(=O)NC(COC1OC(CO)C(OC2OC(CO)C(O)C(O)C2O)C(O)C1O)C(N)=O)C(C)C (some centres unmarked) [CRA-TG-3027] (H-HSD[Sar]IFTDSYSRYRKQ[Nva]AVKKYL[ξS](X2)-NH2) | 90 | 134 | – | – | – | – | – | – | – | – |
| HSDGIFTDSYSRYRKQ[Nva]AVKKYLS(Lac′)-NH2 [CRA-TG-3025] | – | – | 1.8 | 21 | 118 | – | – | – | – | – |
| HSDGIFTDSYSRYRKQ[Nva]AVKKYLS(Glc)S(Glc)-NH2 [CRA-DV-3024] | – | – | 1.9 | 26 | 147 | 152 | 127 | 7370 | 130 | 128 |
| HSDGIFTDSYSRYRKQ[Nva]AVKKYLS-NH2 (not fully specified) [CRA-DV-3022] | – | – | 2.2 | 5.2 | 42 | 198 | 94 | 571 | 91 | 111 |
| HSD[Sar]IFTDSYSRYRKQ[Nva]AVKKYLS(Lac′)-NH2 [CRA-TG-3027] | – | – | 67 | 195 | 107 | 134 | 90 | – | – | – |
